The target in the first assay is BG505 SOSIP.664 Env trimer (UniProt Q2N0S6). In words: ELISA. Particulars: parent: 1.
As to Fab NC-Cow1 D:Q34A, the ratio to parent stood at 1.3.

Take Fab NC-Cow1 D:S19A: the ratio to parent is 1. The same measure, in the same setting: to Fab NC-Cow1 D:E1A belongs 1.2. With Fab NC-Cow1 D:D26A, the ratio to parent worked out at 0.8. The same measure, in the same setting: the same measure for Fab NC-Cow1 D:T7A: 1.3; for Fab NC-Cow1 D:G29A: 64.2; for Fab NC-Cow1 D:Q15A: 1.4. On the same count and under the same terms, the same measure for Fab NC-Cow1 D:M24A: 73.8. For Fab NC-Cow1 D:Q14A, the ratio to parent stood at 0.9. Consider Fab NC-Cow1 H:N100A, for which the ratio to parent was 1.6. Same read-out and setting: to Fab NC-Cow1 D:D5A belongs 1.9.

With Fab NC-Cow1 D:R43A, the ratio to parent turned out to be 0.8. As to Fab NC-Cow1 D:Y40A, the ratio to parent was 1. Still for that read-out and setting: the same measure for Fab NC-Cow1 D:H42A: 1.

For another assay, the target named is BG505 SOSIP.664 Env trimer (HIV-1 (BG505)) (UniProt Q2N0S6). In words: ELISA; direct ELISA: plates coated with soluble BG505 SOSIP trimer (0.2 or 2 ng/μl) in PBS pH 7.4; serially diluted Fab mutants from cell culture supernatant, room temperature 1 hour; goat anti-human lambda HRP; compared with wild-type Fab on the same plate.
Conditions: not given
NC-Cow1 Fab ArgD33 alanine mutant yielded a fold reduction of binding in ELISA against wild-type Fab of more than 9 fold.

In turn, NC-Cow1 Fab ArgD27 alanine mutant came in with a fold reduction of binding in ELISA against wild-type Fab of more than 9 fold. Still for that read-out and setting: to NC-Cow1 Fab TyrD6 alanine mutant belongs more than 9 fold; to NC-Cow1 Fab ArgD11 alanine mutant, more than 9 fold. NC-Cow1 Fab TyrD31 alanine mutant showed a fold reduction of binding in ELISA against wild-type Fab of more than 9 fold.

The next assay shares this target.
Experiment: not given
Conditions: not given
NC-Cow1 Fab TyrD40 alanine mutant returned a neutralization on BG505 pseudovirus; fold reduction of potency against wild-type Fab of more than 3 fold. The substance NC-Cow1 Fab ArgD33 alanine mutant yielded a neutralization on BG505 pseudovirus; fold reduction of potency against wild-type Fab of more than 9 fold. Still for that read-out and setting: the same measure for NC-Cow1 Fab ArgD27 alanine mutant: more than 9 fold; for NC-Cow1 Fab AsnH100 alanine mutant: more than 3 fold. In turn, NC-Cow1 Fab GluD1 alanine mutant came in with a neutralization on BG505 pseudovirus; fold reduction of potency against wild-type Fab of more than 3 fold. NC-Cow1 Fab TyrD6 alanine mutant had a neutralization on BG505 pseudovirus; fold reduction of potency against wild-type Fab of more than 9 fold. On the same count and under the same terms, the same measure for NC-Cow1 Fab ArgD11 alanine mutant: more than 9 fold.

Substance NC-Cow1 Fab TyrD31 alanine mutant registered a neutralization on BG505 pseudovirus; fold reduction of potency against wild-type Fab of more than 9 fold. For NC-Cow1 Fab ArgD43 alanine mutant, the neutralization on BG505 pseudovirus; fold reduction of potency against wild-type Fab was more than 3 fold.

As to NC-Cow1 Fab LysH100b alanine mutant, the neutralization on BG505 pseudovirus; fold reduction of potency against wild-type Fab is more than 3 fold.

These data come from PMC7253169.
